From patent US11471494B2, “Microorganisms programmed to produce immune modulators and anti-cancer therapeutics in tumor cells” (Synlogic Operating Company, Inc., priority 2017, dated 2022)
One block for each molecule: values may come before it.

Columns and labels:
[1] = ELISA binding assay of bacterial extracts (J43-scFv), control coatings; settings: α-V5-HRP
Description: (§1) E. coli comprising either tet-inducible J43-Anti-PD1-scFv-V5 or wild type controls were grown overnight in LB medium. […] Same amount of tetracycline was added to wild type control cultures.
(§2) To determine whether the single-chain antibody purified from E. coli DH5α functionally binds to the target protein, PD1, an ELISA assay was performed.

[2] = biological target: T1, mPD1 on the surface of EL4 cells (Mus musculus, UniProt Q02242); test: PDL1 competition assay on EL4 cells (flow cytometry); assay type: cell-based; settings: PDL1 0, 5, 10 and 30 μg/mL
T1 construct: EL4 are a mouse lymphoma cell line which expresses PD1 on its cell surface; endogenous in cells; host or cells: EL4 mouse lymphoma cells
T1 sequence (Q02242 25-288): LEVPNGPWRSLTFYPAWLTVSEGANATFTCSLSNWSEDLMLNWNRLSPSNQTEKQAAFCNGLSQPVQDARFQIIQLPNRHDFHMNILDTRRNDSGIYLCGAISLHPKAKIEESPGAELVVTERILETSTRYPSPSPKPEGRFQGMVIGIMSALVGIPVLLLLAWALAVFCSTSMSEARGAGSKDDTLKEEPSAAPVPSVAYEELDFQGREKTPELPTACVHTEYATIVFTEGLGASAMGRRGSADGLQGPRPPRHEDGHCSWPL
Description: Next, a competition assay was conducted to determine whether PDL1 could inhibit the binding of the anti-PD1-scFv secreted by the genetically engineered bacteria from binding to murine PD1. EL4 cells were grown and flow cytometry protocol was conducted essentially as described above except that PDL1 was added at various concentrations (0, 5, 10, and 30 μg/mL) during the incubation of the secreted anti-PD1-scFv-V5. Rat-IgG was used as a negative control of secreted scFv.

[3] = biological target: T2, mPD1 (Mus musculus, UniProt Q02242); test: ELISA binding assay of bacterial extracts (J43-scFv); settings: α-V5-HRP
T2 construct: purchased Rndsystems
T2 sequence (Q02242 25-288): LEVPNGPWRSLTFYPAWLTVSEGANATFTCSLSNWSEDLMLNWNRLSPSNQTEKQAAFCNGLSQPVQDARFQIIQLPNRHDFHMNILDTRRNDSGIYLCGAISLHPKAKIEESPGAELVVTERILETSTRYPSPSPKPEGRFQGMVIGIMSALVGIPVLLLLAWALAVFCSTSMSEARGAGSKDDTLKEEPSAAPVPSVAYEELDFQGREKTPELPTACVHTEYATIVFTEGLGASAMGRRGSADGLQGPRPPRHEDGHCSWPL
Description: as §1, §2

[4] = biological target: T3, PD1 on mouse EL4 cells (Mus musculus, UniProt Q02242); test: Flow cytometry, binding of anti-PD1-scFv to EL4 cells; assay type: cell-based
T3 construct: EL4 are a mouse lymphoma cell line which expresses PD1 on its cell surface; endogenous in cells; host or cells: EL4 mouse lymphoma cells
T3 sequence (Q02242 25-288): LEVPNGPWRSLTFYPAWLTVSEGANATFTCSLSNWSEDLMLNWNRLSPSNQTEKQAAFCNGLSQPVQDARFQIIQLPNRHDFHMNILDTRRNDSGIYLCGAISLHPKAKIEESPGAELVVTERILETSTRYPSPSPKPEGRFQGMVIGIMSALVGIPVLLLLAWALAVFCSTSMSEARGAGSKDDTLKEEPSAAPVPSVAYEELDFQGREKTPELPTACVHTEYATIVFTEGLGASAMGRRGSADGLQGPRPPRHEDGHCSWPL
Description: To determine whether anti-PD1-scFv expressed in E. coli binds to surface PD1 on mouse EL4 cells, flow cytometric analysis was performed using EL4 cells. EL4 are a mouse lymphoma cell line which expresses PD1 on its cell surface.
EL4 cells were grown in Dulbecco's Modified Eagle's Medium (DMEM) with 10% FBS. Cells were spun down, supernatant was aspirated, pellet was resuspended in 1 ml D-PBS, transferred into chilled assay tubes (1×10^6 cells), and washed 2-3 times in D-PBS with 0.5% BSA. Cells were resuspended in PBS with 0.5% BSA, to which the purified scFv-V5 and anti-V5-FITC antibody were added and incubated for 1 hour at room temperature. Negative control left out scFv-V5. Cells were resuspended in 0.5 ml PBS and analyzed on a flow cytometer.
EL4 are a mouse lymphoma cell line which expresses PD1 on its cell surface.
EL4 cells were grown in Dulbecco's Modified Eagle's Medium (DMEM) with 10% FBS and 1% Penicillin-Streptomycin Cells were spun down, supernatant was aspirated, pellet was resuspended in 1 ml D-PBS, transferred into chilled assay tubes (1×10^6 cells), and washed 3 times in D-PBS. Cells were resuspended in D-PBS with 0.5% BSA, to which the purified scFv-V5 and anti-V5-FITC antibody were added and incubated for 1 hour at room temperature. Negative control left out secreted J43-scFv-V5. Cells were then resuspended in 0.5 ml PBS and analyzed on a flow cytometer. Results are shown in (FIG. 20).

[5] = biological target: T4, mCD47 (Mus musculus, UniProt Q61735); test: SIRPα/CD47 ELISA binding assay of supernatants; settings: supernatant
T4 sequence (Q61735 19-303): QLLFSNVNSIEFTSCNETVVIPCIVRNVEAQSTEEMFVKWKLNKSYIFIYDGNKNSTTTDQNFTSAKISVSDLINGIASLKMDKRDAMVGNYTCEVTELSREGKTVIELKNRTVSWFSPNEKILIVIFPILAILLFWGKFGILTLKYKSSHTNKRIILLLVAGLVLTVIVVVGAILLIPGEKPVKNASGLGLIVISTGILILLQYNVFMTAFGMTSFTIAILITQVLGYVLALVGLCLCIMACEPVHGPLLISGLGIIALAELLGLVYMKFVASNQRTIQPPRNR

[6] = SIRPα/CD47 ELISA binding assay, control coatings; settings: supernatant
[7] = tested on: anti-mCD40L antibody; test: CD40 ELISA binding assay of supernatants, detection by antibody; settings: clarified supernatant
[8] = CD40 ELISA binding assay, control coatings; settings: clarified supernatant
[9] = biological target: T5, mCD40 (Mus musculus, UniProt P27512); test: CD40 ELISA binding assay of supernatants; settings: clarified supernatant
T5 sequence (P27512 20-289): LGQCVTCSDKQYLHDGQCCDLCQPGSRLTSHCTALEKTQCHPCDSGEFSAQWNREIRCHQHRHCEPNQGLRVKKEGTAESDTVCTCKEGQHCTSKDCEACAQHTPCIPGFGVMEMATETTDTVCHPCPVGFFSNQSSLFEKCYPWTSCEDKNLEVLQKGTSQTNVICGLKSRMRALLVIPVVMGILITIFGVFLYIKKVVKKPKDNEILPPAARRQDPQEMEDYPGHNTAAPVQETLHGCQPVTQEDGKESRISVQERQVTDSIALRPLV

- ELISA signal at 450 nm, IgG coating ([1]; bacterial extract (1/2)): 0.11
- ELISA signal at 450 nm, PBS coating ([1]; bacterial extract (1/2)): 0.10
- ELISA signal at 450 nm, IgG coating ([1]; bacterial extract): 0.13
- ELISA signal at 450 nm, PBS coating ([1]; bacterial extract): 0.11
- Competition of PDL1 against binding of secreted scFv [2]: competed in a dose dependent manner
- ELISA signal at 450 nm, mPD1 coating ([3]; bacterial extract (1/2)): 0.90
- ELISA signal at 450 nm, mPD1 coating ([3]; bacterial extract): 1.41
- Binding to EL4 cells ([4]; purified scFv with anti-V5-FITC, two batches): population shift
- Staining of EL4 cells ([4]; secreted scFv 0, 2, 5 and 15 μL): dose-dependent staining
- Binding to EL4 cells ([4]; secreted scFv with anti-V5-FITC): population shift
B1: J43-scFv-V5: single-chain variable fragment based on J43 monoclonal antibody against mouse PD-1, V5 and HIS tagged, expressed in E. coli (protein)
scFv: MQLEVRLLESGGGLVKPEGSLKLSCVASGFTFSDYFMSWVRQAPGKGLEWVAHIYTKSYNYATYYSGSVKGRFTISRDDSRSMVYLQMNNLRTEDTATYYCTRDGSGYPSLDFWGQGTQVTVSSGGGGSGGGGSGGGGSYELTQPPSASVNVGETVKITCSGDQLPKYFADWFHQRSDQTILQVIYDDNKRPSGIPERISGSSSGTTATLTIRDVRAEDEGDYYCFSGYVDSDSKLYVFGSGTQLTVLGKGELNSKLEGKPIPNPLLGLDSTRTGHHHHHH

- ELISA signal, coating mCD47 [5]: 0.527
- ELISA signal, coating IgG [6]: 0.067
- ELISA signal, coating PBS [6]: 0.053
B2: Secreted anti-mCD47 scFv: anti-mCD47 scFv secreted by engineered Nissle (SYN3161), in supernatant (protein)
scFv: QVKLLQSGAALVKPGASVKMSCQASGYSFTDYWVTWVKQSHGQSLEWIGEIYPSNTVTNFNDNFKGKATLTVDKSTSTAYMELSRLTSEDSAIYYCTRIGNSGYRVGWFIYWGQGTLVTVLSGGGGSGGGGSGGGGSDTVLTQSPALAVSPGERVTISCKASESVSSHMHWYQQKPGQQPKLLIYKASNLASGVPARFSGSGSGTDFTLTIDPVEADDTATYFCQQGWNGPFTFGAGTRLELKRADAAGSGELGGSGKPIPNPLLGLDSTGSGHHHHHH

- ELISA signal, coating Anti-mCD40L [7]: 0.825
- ELISA signal, coating IgG [8]: 0.052
- ELISA signal, coating PBS [8]: 0.05
- ELISA signal, coating mCD40 [9]: 0.639
B3: Secreted CD40-L2: soluble form of murine CD40L secreted by SYN3367, in clarified supernatant (protein)
chain: MQRGDEDPQIAAHVVSEANSNAASVLQWAKKGYYTMKSNLVMLENGKQLTVKREGLYYVYTQVTFCSNREPSSQRPFIVGLWLKPSSGSERILLKAANTHSSSQLCEQQSVHLGGVFELQAGASVFVNVTEASQVIHRVGFSSFGLLKL
modifications: left off: small tags and cut ends
